Earlier results on one substance are cited in article PMC5132258.

The pKa is the negative logarithm of the acid dissociation constant.

This data set concerns the target His89 (UniProt position 89, VLYCVHQRIDV). The settings on record: not stated (folded wild-type matrix protein implied; myristoylation state not given).

Take “HIV-1 matrix protein p17 (MA), N-terminal domain of the Gag polyprotein (Human immunodeficiency virus type 1)”: the pKa is listed as 6.5.
